What was measured:
Experiment in all cases: multiplex microsphere immunoassay
GI.4 VLP = target: T1, GI.4 VLP (norovirus Hu/GI.4/1643/2008/US)
T1 construct: also called GI.4 US
T1 chain: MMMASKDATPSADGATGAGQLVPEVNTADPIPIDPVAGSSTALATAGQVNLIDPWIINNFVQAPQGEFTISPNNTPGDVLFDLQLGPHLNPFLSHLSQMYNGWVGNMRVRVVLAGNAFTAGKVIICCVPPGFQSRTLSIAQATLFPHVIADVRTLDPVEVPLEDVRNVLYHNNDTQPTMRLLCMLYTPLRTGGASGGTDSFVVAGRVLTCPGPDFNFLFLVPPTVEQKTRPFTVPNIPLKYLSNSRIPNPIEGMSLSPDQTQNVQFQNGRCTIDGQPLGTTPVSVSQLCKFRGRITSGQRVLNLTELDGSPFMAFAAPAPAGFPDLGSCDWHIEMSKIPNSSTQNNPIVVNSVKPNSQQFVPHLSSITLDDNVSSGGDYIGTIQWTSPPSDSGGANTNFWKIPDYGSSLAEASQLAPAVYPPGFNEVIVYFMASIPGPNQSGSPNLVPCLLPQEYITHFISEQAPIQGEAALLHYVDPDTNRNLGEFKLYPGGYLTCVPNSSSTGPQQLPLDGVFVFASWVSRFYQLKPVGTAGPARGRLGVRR

GI.6 VLP = target: T2, GI.6 VLP (norovirus Hu/GI.6/TCH-099/USA/2003)
T2 construct: also called GI.6 USA
T2 chain: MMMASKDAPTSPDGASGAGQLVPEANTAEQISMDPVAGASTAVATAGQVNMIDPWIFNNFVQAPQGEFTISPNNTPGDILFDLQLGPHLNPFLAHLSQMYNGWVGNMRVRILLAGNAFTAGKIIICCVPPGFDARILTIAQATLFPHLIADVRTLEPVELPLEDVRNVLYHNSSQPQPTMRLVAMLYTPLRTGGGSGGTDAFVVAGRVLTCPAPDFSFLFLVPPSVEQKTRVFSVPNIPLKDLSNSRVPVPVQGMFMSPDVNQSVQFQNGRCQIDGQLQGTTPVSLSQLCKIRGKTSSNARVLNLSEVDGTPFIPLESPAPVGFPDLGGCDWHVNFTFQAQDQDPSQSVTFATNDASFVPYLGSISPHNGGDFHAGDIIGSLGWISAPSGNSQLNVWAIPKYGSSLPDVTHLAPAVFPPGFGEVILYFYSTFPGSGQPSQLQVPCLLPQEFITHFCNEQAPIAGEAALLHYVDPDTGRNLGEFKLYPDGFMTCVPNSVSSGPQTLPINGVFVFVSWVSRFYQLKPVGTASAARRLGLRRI

GI.1 VLP = target: T3, GI.1 VLP (norovirus Hu/GI.1/Norwalk/1968/US, UniProt Q83884 1-530)
T3 construct: also called GI.1 Norwalk; GI.I/Norwalk VLP
T3 sequence: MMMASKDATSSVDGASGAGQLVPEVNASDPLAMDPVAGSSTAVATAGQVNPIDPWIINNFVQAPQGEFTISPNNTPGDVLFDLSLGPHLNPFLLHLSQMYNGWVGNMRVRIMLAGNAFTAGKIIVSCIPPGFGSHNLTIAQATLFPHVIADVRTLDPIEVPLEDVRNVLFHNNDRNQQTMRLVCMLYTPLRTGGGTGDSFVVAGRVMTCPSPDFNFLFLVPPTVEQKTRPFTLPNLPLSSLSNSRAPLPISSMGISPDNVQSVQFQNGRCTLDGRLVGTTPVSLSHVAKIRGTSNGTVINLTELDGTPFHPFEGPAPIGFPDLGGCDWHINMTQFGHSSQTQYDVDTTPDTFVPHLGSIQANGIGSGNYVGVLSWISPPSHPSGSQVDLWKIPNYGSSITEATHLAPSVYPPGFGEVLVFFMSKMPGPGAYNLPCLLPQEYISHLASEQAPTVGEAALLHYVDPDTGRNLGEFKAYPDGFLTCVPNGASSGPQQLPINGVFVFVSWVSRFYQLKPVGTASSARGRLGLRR

GI.3 VLP = target: T4, GI.3 VLP (norovirus Hu/GI.3/JKPG_883/SWE/2007)
T4 construct: also called GI.3 Sweden
T4 chain: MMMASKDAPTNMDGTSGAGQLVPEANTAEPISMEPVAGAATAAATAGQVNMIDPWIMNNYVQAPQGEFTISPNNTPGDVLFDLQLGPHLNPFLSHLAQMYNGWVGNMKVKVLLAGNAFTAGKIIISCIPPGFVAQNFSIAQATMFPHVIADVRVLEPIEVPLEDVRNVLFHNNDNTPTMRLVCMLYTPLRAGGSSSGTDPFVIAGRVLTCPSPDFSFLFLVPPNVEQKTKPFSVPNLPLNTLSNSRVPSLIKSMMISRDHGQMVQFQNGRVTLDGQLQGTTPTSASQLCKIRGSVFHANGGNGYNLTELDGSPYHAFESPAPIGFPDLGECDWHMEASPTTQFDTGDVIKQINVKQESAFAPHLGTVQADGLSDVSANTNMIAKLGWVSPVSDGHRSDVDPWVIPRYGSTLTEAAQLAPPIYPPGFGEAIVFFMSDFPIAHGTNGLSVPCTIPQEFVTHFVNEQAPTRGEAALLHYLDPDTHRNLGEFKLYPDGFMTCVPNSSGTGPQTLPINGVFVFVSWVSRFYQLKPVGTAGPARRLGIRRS

GI.5 VLP = target: T5, GI.5 VLP (norovirus …)
T5 construct: also called GI.5 Siklos
T5 chain: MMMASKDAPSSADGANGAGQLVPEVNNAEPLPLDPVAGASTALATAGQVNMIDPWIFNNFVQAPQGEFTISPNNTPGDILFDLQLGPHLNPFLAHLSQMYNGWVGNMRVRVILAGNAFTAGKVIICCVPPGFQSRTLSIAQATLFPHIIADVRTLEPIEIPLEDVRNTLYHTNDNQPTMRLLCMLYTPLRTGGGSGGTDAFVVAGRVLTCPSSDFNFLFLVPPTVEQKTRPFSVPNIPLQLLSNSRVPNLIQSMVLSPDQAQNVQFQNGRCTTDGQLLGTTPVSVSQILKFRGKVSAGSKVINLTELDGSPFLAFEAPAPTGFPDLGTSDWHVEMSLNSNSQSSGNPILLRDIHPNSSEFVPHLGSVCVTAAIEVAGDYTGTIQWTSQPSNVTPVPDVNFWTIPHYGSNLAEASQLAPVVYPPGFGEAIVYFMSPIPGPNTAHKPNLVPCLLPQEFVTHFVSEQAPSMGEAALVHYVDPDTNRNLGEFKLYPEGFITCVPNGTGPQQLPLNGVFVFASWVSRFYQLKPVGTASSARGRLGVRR

Measured: binding result

B1: human mAb 1431 (antibody, V domains shown)
VH: QVQLVQSGGGLVQPGGSLRLSCAASGFAFSNHGMHWVRQAPGKGLEWLSYISGSTGAIHYANSVKGRFTISRDNARNSLDLQMNSLGDEDTAVYYCARDGPRPDGTGYAGPSNDYWGQGTLVSVSS
VL: EIVLTQSPASLSLSPGERATLSCKASRSISIYLAWYQQKPGQAPRLLIYDASYRAIGIPARFSGSGSGTDFTLTISNLEPEDFAVYYCQHRSSWPALTFGGGTKVEI
notes: also called A1431
no binding: all assays above
